Data as given in patent publication US8221990B2, “Screening GPR12 receptor for substances having Nesfatin-1-like action, or which regulate Nesfatin-1 action” (Teijin Pharma Limited, priority 2007, dated 2012).

What was measured:
GPR12 = target: T1, GPR12 (Mus musculus, UniProt P35412); assay: Expression of a CRE-reporter gene (pCRE-Luc luciferase) in NB41A3 cells expressing GPR12 endogenously; assay type: cell-based; details: NB41A3 cells transfected with pCRE-Luc, 10^-10 M, 16 hours
T1 construct: in which GPR12 was endogenously expressed; endogenous in cells; host or cells: NB41A3 cells (ATCC-CCL147), mouse brain neuroblastoma
T1 sequence (P35412 1-334): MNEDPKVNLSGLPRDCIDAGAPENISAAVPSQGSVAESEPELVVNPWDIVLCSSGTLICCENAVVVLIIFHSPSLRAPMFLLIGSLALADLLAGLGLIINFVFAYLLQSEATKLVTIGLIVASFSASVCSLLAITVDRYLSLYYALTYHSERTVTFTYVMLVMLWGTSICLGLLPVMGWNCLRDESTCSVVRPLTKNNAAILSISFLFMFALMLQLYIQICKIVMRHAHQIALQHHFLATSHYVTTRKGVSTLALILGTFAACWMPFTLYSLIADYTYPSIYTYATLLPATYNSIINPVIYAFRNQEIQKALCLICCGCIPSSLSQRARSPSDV
Description: NB41A3 cells (ATCC-CCL147), a cell strain derived from mouse brain neuroblastoma, in which GPR12 was endogenously expressed were used. The confluent NB41A3 cells were recovered in a 10-cm dish, plated onto 10 cm-dishes after dividing the cell colony in four quarters, and cultured for one day in Ham's F12K medium. The cells were transected with 5 μg of the reporter plasmid pCRE-Luc (Stratagene Corporation, Catalog No. 219074) in which TATA-BOX and luciferase were incorporated into downstream of CRE by a calcium phosphate method. The cells were washed with Ham's F12K medium 16 hours after the transfection. Ham's F12K medium containing no test substance (Vehicle), Ham's F12K medium containing 10^−10 M of Nesfatin-1 M30 (Mid-Segment: SEQ ID NO: 11), Ham's F12K medium containing 10^−10 M of a modified peptide M30_Ag-A (SEQ ID NO: 50) (M30_Ag-A), and Ham's F12K medium containing 10^−10 M of a modified peptide M30_MSH-A (SEQ ID NO: 51) […] were added to the cells, and the resultant mediums were cultured under the conditions of 37° C. and 5% CO2 for 16 hours. After the culturing, the cells were washed twice with phosphate-buffered saline (PBS), lysed with 4 mL of lysis buffer (an aqueous solution containing 25 mM of glycylglicine (pH 7.8), 15 mM of magnesium sulfate, 4 mM of glycol ether diaminetetraacetic acid (EGTA), 1 mM of dithiothreitol (DTT), and 1% (volume/volume) of Triton X-100). […] After adding 200 μL of 0.2 mM of d-luciferin to the diluted cell lysate, the luminescence was measured for 10 seconds by a luminometer, and the amount of luminescence (units) was determined. Further, the amount of protein in each cell lysate was measured by BCA™ Protein Assay Kit-Reducing Agent Compatible (Pearce, Catalog No. 23250), and the value obtained by dividing the amount of luminescence (units) by the amount of protein (μg) in a sample was determined as a luciferase activity. […] The cells were cultured for 16 hours, and then the level of luciferase activity was also determined.

mGPR12 = target: T2, mGPR12 (Mus musculus, UniProt P35412); assay: CREB phosphorylation in CHO-K1-cell stable expression system (western blotting); assay type: cell-based; design: expressed in transfected cells; details: CHO-K1-mGPR12 cells
T2 sequence (P35412 1-334): T1 sequence (P35412 1-334)
Description: Using Nesfatin-1M30 (Mid-segment) as a test substance, the method for bringing the test substance into contact with cells was conducted as follows. The confluent CHO-K1 cells and CHO-K1-mGPR12 cells were recovered in 10-cm dishes, plated onto 10-cm dishes by dividing the cell colony in four quarters, and cultured for 2 days in Ham's F12 medium (as for CHO-K1-mGPR12, 700 μg/mL of Geneticin® was contained). After removing the medium, the resultant cultured cells were washed once with the medium containing no Geneticin®, and then Ham's F12 medium containing 10^−9 M of Nesfatin-1M30 (Mid-segment) peptide was added to the cells. […] SDS-gel electrophoresis was conducted by using the protein extracts from each cells; and then the protein was transcribed into Amersham hybond-P[…] (GE Healthcare); and using anti-phosphorylation CREB antibody (Cell Signaling Technology, Inc., Catalog No. #9191) for detecting the phosphorylated CREB, the phosphorylated CREB was detected with an ECL plus western blotting detection reagents (GE Healthcare) kit, in accordance with the attached protocol. […]
Further, the concentration dependence was examined by using Nesfatin-1M30 (Mid-segment: SEQ ID NO: 11). […] Subsequently, cellular proteins were extracted, and the phosphorylated CREB (p-CREB) was detected by a western blotting method.

- luciferase activity compared with Vehicle (GPR12): enhanced
- phosphorylation of CREB (p-CREB band), time course (mGPR12; 10^-9 M, 15 minutes or later after contact): phosphorylation of CREB was induced
Substance: Nesfatin-1M30: mid-segment of Nesfatin-1, human-derived Nesfatin-1M30, SEQ ID NO: 11 (PDTGLYYDEYLKQVIDVLETDKHFREKLQK; listed as Homo sapiens)
- phosphorylation of CREB, concentration dependence (mGPR12; 10^-12 M to 10^-9 M, 15 minutes): enhanced depending on the M30 peptide concentration
